{"source": "patent US7097972", "target": "purified poly(ADP-ribose) polymerase (PARP)", "data": [{"protein": "purified recombinant human ICE (protein) chain 1: NPAMPTSSGSEGNVKLCSLEEAQRIWKQKSAEIYPIMDKSSRTRLALIICNEEFDSIPRRTGAEVDITGMTMLLQNLGYSVDVKKNLTASDMTTELEAFAHRPEHKTSDSTFLVFMSHGIREGICGKKHSEQVPDILQLNAIFNMLNTKNCPSLKDKPKVIIIQACRGDSPGVVWFKD chain 2: AIKKAHIEKDFIAFCSSTPDNVSWRHPTMGSVFIGRLIEHMQEYACSCDVEEIFRKVRFSFEQPDGRAQMPTTERVTLTRCFYLFPGH", "values": [{"measurement": "proteolytic cleavage of purified PARP, anti-PARP immunoblot", "value": "Purified ICE did not cleave PARP"}]}]}
